B1: FIXa-Y155F/N260S/R338E/T343R/R403E (protein)
chain 1: not shown
chain 2: not shown
B2: FIXa-Y155F/I251S/R338E/T343R/R403E (protein)
chain 1: not shown
chain 2: not shown
B3: FIXa-R318Y/R338E/T343R/R403E/E410S (protein)
chain 1: not shown
chain 2: not shown
B4: FIXa-Y155F/K247N/N249S/T343R/R403E (protein)
chain 1: not shown
chain 2: not shown
B5: FIXa-Y155F/K247N/N249S/R318Y/R338E/T343R/R403E (protein)
chain 1: not shown
chain 2: not shown
B6: FIXa-K247N/N249S/R318Y/R338E/T343R/R403E (protein)
chain 1: not shown
chain 2: not shown
B7: FIXa-Y155F/K247N/N249S/R338E/T343R/R403E/E410N (protein)
chain 1: not shown
chain 2: not shown
B8: FIXa-K247N/N249S/R338E/T343R/R403E/E410N (protein)
chain 1: not shown
chain 2: not shown
B9: FIXa-Y155F/K247N/N249S/R318Y/R338E (protein)
chain 1: not shown
chain 2: not shown
B10: FIXa-Y155F/K247N/N249S/R318Y/T343R (protein)
chain 1: not shown
chain 2: not shown

Target: Factor X, P00742
Sequence (P00742 whole entry, looked up): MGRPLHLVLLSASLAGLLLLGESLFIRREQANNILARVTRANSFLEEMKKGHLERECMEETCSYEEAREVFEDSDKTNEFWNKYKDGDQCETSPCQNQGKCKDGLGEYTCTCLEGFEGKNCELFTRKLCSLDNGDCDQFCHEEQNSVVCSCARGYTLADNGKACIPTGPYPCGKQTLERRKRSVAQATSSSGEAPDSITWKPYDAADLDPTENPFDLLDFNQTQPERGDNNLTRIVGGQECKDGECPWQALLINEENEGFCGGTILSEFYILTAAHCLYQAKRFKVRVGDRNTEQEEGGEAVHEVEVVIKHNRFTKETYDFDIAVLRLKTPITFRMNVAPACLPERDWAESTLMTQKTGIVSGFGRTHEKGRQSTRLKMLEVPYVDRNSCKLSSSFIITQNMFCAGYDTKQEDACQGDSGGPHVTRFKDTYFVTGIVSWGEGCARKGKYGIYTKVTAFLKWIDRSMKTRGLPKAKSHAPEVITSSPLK

| Protein | KM [nM] | kcat/KM [M⁻¹ s⁻¹] | % of WT kcat/KM [%] |
| --- | --- | --- | --- |
| B1 | 69.2 | 9.4e+07 | – |
| B2 | 19.6 | 3e+08 | – |
| B3 | 19 | 4.4e+08 | – |
| B4 | 59.6 | 8.5e+07 | – |
| B5 | 36.5 | 2.9e+08 | – |
| B6 | 28.4 | 4.1e+08 | – |
| B7 | 26.4 | 3.7e+08 | – |
| B8 | 25.1 | 4.3e+08 | 930 |
| B9 | 26.3 | 2.9e+08 | 632 |
| B10 | 42.1 | 2.5e+08 | 549 |
